In patent EP3020822A1 (Janssen Biotech, Inc., dated 2016):

How the values were obtained:
cynomolgus TLR3 = cynomolgus TLR3 (cynomolgus, UniProt A0A2K5WT39 32-912); experiment: cell-based or functional assay
[1] = target: T1, human TLR3 extracellular domain (ECD) (human, UniProt O15455 24-703); experiment: ELISA, human TLR3 ECD coated, goat anti-human Fc:HRP, luminescence
T1 construct: amino acids 1-703 of human TLR3; the structural model covers residues 30-687; also called huTLR3 ECD; TLR3 ECD

murine TLR3, full length = murine TLR3, full length (mouse, UniProt Q99MB1 26-905); experiment: cell-based or functional assay

binding result [1]	IC50, poly(I:C) ISRE luciferase reporter gene assay, HEK293T cells with full-length murine TLR3 (murine TLR3, full length) [mg/L]	Binder	further results
binds		mAb 15-5 (antibody, human IgG4 S228P, kappa, F234A L235A, V domains shown, also called HC: F50R/V34I/G35S/A61S/Q67H) VH: EVQLVQSGAEVKKPGESLKISCKGSGYSFTNYWISWVRQMPGKGLEWMGRIDPSDSYTNYSPSFQGHVTISADKSISTAYLQWSSLKASDTAMYYCARELYQGYMDTFDSWGQGTLVTVSS VL: DIQMTQSPSSLSASVGDRVTITCRASQSIGLYLAWYQQKPGKAPKLLIYAASSLQSGVPSRFSGSGSGTDFTLTISSLQPEDFATYYCQQGNTLSYTFGQGTKVEIKR	
	0.5	mAb 5429 (antibody, mouse IgG1, kappa, V domains shown) VH: EVQLVASGGGLVKPGASLKLSCVASGFTFSDYWMAWVRQTPGKPMEYIGDIKSDGSKVNYAPSLKNRFTISRDNARTTLYLQMSNVRSEDTATYYCNRDIGPDWYFDFWGPGTMVTVSS VL: DIQMTQSPTSLSASLGETVTIECRASEDIYNGLAWYQQKPGKSPQLLIYDSNSLHTGVPSRFSGRGSGTQYSLRINSLQSEDVASYFCQQYYDYPLTFGSGTKLEIKR	
	0.7	mAb c1811 (antibody, mouse IgG1, kappa, V domains shown) VH: EVQLVASGGGLVKPGASLKLSCVASGFTFSDYWMAWVRQTPGKPMEYIGDIKSDGSKVNYAPSLKNRFTISRDNARTTLYLQMSNVRSEDTATYYCNRDIGPDWYFDFWGPGTMVTVSS VL: DIQMTQSPTSLSASLGETVTIECRASEDIYNGLAWYQQKPGKSPQLLIYDSNSLHTGVPSRFSGRGSGTQYSLRINSLQSEDVASYFCQQYYDYPLTFGSGTKLEIKR	

Second part, the binder before the results:

Binder	binding result [1]	IC50, poly(I:C) ISRE luciferase reporter gene assay, HEK293T cells with full-length murine TLR3 (murine TLR3, full length) [mg/L]	further results
mAb 15EVQ (antibody, human IgG4 S228P, kappa, F234A L235A) heavy: not shown light: DIQMTQSPSSLSASVGDRVTITCRASQSIGLYLAWYQQKPGKAPKLLIYAASSLQSGVPSRFSGSGSGTDFTLTISSLQPEDFATYYCQQGNTLSYTFGQGTKVEIKRTVAAPSVFIFPPSDEQLKSGTASVVCLLNNFYPREAKVQWKVDNALQSGNSQESVTEQDSKDSTYSLSSTLTLSKADYEKHKVYACEVTHQGLSSPVTKSFNRGEC			IC50, cyno ISRE reporter gene assay (cynomolgus TLR3): 1.74 mg/L; IC50, cyno NF-κB reporter gene assay (cynomolgus TLR3): 4.18 mg/L
mAb 15-9 (antibody, human IgG4 S228P, kappa, F234A L235A, V domains shown, also called HC: F50R/V34I/G35S/A61S/Q67H/E99Q) VH: EVQLVQSGAEVKKPGESLKISCKGSGYSFTNYWISWVRQMPGKGLEWMGRIDPSDSYTNYSPSFQGHVTISADKSISTAYLQWSSLKASDTAMYYCARQLYQGYMDTFDSWGQGTLVTVSS VL: DIQMTQSPSSLSASVGDRVTITCRASQSIGLYLAWYQQKPGKAPKLLIYAASSLQSGVPSRFSGSGSGTDFTLTISSLQPEDFATYYCQQGNTLSYTFGQGTKVEIKR	binds		
mAb 15-6 (antibody, human IgG4 S228P, kappa, F234A L235A, V domains shown, also called HC: V34I/G35S/E99Q) VH: EVQLVQSGAEVKKPGESLKISCKGSGYSFTNYWISWVRQMPGKGLEWMGFIDPSDSYTNYAPSFQGQVTISADKSISTAYLQWSSLKASDTAMYYCARQLYQGYMDTFDSWGQGTLVTVSS VL: DIQMTQSPSSLSASVGDRVTITCRASQSIGLYLAWYQQKPGKAPKLLIYAASSLQSGVPSRFSGSGSGTDFTLTISSLQPEDFATYYCQQGNTLSYTFGQGTKVEIKR	binds		
mAb 15 (antibody, human IgG4 S228P, kappa) heavy: not shown light: DIQMTQSPSSLSASVGDRVTITCRASQSIGLYLAWYQQKPGKAPKLLIYAASSLQSGVPSRFSGSGSGTDFTLTISSLQPEDFATYYCQQGNTLSYTFGQGTKVEIKRTVAAPSVFIFPPSDEQLKSGTASVVCLLNNFYPREAKVQWKVDNALQSGNSQESVTEQDSKDSTYSLSSTLTLSKADYEKHKVYACEVTHQGLSSPVTKSFNRGEC		22	
